US20240174741A1 (IMMUNOME, published 2024)

Tests used:
Human IL1RAPL1-Fc = target: T1, Human IL1RAPL1-Fc (human, UniProt Q9NZN1 19-357, limits assumed); assay: MSD plate assay, IL-38 on plate-bound IL1RAPL1-Fc, detected with biotinylated anti-IL-38 clone H127C
T1 construct: Bought reagent
T1 sequence (looked up): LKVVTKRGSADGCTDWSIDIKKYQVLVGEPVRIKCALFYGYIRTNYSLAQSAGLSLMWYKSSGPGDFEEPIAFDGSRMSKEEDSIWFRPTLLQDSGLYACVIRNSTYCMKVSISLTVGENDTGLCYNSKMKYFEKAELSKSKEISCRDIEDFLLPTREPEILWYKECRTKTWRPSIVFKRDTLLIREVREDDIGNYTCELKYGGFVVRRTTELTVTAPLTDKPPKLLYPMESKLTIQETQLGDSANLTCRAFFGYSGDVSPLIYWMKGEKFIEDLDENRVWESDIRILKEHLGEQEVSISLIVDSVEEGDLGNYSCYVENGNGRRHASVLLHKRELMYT
Description: (§1) Neutralization of human IL-38 binding to IL1RAPL1 or IL-36R. Human IL1RAPL1-Fc (Sino Biological, #10177-H02H) and human IL-36R-Fc (R&D Systems) were diluted in coating Buffer (50 mM Carbonate-Bicarbonate Buffer, pH 9.4) at final concentration of 0.5 μg/mL and coated on MSD high bind plates (MSD) for approximately two hours at RT. Recombinant human IL-38 (Adipogen) was diluted in assay Diluent (1% BSA, 0.1% Tween 20, in 1×PBS). For antibody testing, anti-IL-38 antibodies were pre-incubated with IL-38 for approximately one hour at RT. IL-38 or antibody-IL-38 mixture was transferred to pre-coated MSD plates and incubated for approximately two hours at RT. After washing, the MSD plate was incubated with biotinylated mouse anti-human IL-38 (clone H127C, Thermo Fisher) at final concentration of 100 ng/mL and Sulfo-Tag-Streptavidin (MSD) at final concentration of 100 ng/mL for 1 hour at RT. Binding of IL-38 to plate-bound IL1RAPL1-Fc or human IL-36R-Fc was detected using the Meso Sector S 600 plate reader. Data are plotted using GraphPad Prism version 9.0.1. Dose response curves were fitted with “[Inhibitor] vs. response—Variable slope (four parameters)” method.

human IL-36R-Fc = target: T2, human IL-36R-Fc (human, UniProt Q9HB29 20-335, limits assumed); assay: MSD plate assay, IL-38 on plate-bound IL-36R-Fc, detected with biotinylated anti-IL-38 clone H127C
T2 construct: Bought reagent
T2 sequence (looked up): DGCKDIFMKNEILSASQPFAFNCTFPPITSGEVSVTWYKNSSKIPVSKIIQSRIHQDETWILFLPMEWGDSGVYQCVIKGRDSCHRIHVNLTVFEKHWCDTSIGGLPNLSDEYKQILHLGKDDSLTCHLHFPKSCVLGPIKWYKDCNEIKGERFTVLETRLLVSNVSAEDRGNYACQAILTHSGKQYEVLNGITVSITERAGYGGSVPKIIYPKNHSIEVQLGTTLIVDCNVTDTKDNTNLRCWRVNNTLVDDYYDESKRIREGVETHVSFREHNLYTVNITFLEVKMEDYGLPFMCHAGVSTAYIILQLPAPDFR
Description: as §1

B1: human interleukin-38 (IL-38) (ligand, UniProt Q8WWZ1 1-152, looked up)
chain: MCSLPMARYYIIKYADQKALYTRDGQLLVGDPVADNCCAEKICILPNRGLARTKVPIFLGIQGGSRCLACVETEEGPSLQLEDVNIEELYKGGEEATRFTFFQSSSGSAFRLEAAAWPGWFLCGPAEPQQPVQLTKESEPSARTKFYFEQSW
notes: One entry is used for all sources of human IL-38; The Adipogen protein is called full length; also called IL1F10/IL38; IL1F10
binding result (Human IL1RAPL1-Fc): binds
binding result (human IL-36R-Fc): binds
